Results taken from PMC4161474.

Legend:
Experiment in all cases: co-IP; HEK293 cells co-transfected with Flag-HBx wt or alanine substitution mutants and His-myc-Spin1; precipitated with anti-Flag antibodies, anti-Myc and anti-Flag blots quantified with the Odyssey system; signal normalised to HBx in the IP/HBx in the input, Flag-HBx wt set to 100% (Figure 1C)
[1] = target: Flag-HBx Cm7, clustered alanine substitution mutant (Hepatitis B virus) (UniProt P69713)
[2] = target: Flag-HBx Cm8, clustered alanine substitution mutant (Hepatitis B virus) (UniProt P69713)
[3] = target: Flag-HBx Cm13, clustered alanine substitution mutant (Hepatitis B virus) (UniProt P69713)
[4] = target: Flag-HBx Cm9, clustered alanine substitution mutant (Hepatitis B virus) (UniProt P69713)
[5] = target: Flag-HBx Cm5, clustered alanine substitution mutant (Hepatitis B virus) (UniProt P69713)

His-Myc-Spindlin1 (from UniProt Q9Y657 1-262) (natural protein)
percent of Spindlin1 immunoprecipitated (Flag-HBx wt = 100%) [1]: 13% | percent of Spindlin1 immunoprecipitated (Flag-HBx wt = 100%) [2]: 52% | percent of Spindlin1 immunoprecipitated (Flag-HBx wt = 100%) [3]: 29% | percent of Spindlin1 immunoprecipitated (Flag-HBx wt = 100%) [4]: 28% | percent of Spindlin1 immunoprecipitated (Flag-HBx wt = 100%) [5]: 10%
